According to patent publication US20180037638A1:

How the values were obtained:
[1] = biological target: auto-inducing peptide (AIP) 2 (Staphylococcus aureus); experiment: cell-based or functional assay
[2] = biological target: auto-inducing peptide (AIP) 2 (Staphylococcus aureus); experiment: SPR, antibody immobilized on CM5 chip, AIP2 as analyte, 1:1 Langmuir fit

Binder	Inhibition of AIP2 QS (IC50; nM), agr-driven YFP reporter strain USA100-AH2619 [1] [nM]	Inhibition of AIP2 QS (IC50; nM), agr-driven YFP reporter strain USA100-AH2625 [1] [nM]	Kd [2] [nM]
C7 (antibody, V domains shown) VH: EVQLVQSGAEMKKPGASMKVSCKTSGYTFARKYMHWLRQAPGQGLEWMGIINPTGGTKSYAPKFQGRVTMTSDMSTNTVYMELNSLRSEDTAVYYCVSDDEEPVWGQGTMVTVSS VL: QSALTQPPSVSKGLRQTATLTCTGNSNNVGSQGAAWLQQHQGHPPKVLSYRNNNRPSGISERFSASRSGNTASLTITGLQPEDEGDYYCSAWDSSLSAPVFGGGTKLTVL	33.7	31.2	–
D3 (antibody, V domains shown) VH: EVQLVQSGAEVKKPGSSVKVSCKAYGGTFGSYGVSWVRRAPGQGLEWMGRLIPIFGTRDYAQKFQGRVTLTADESTNTAYMELSSLRSEDTAVYYCARDGDYYGSGSYYGMDVWGQGTLVTVSS VL: SYELTQPPSASGSPGQSVTISCTGTSSDVGGYNYVSWYQQHPGKAPKVMIYEVSKRPSGVSNRFSGSKSGNTASLTISGLQAEDEADYYCSSYTSSSTHVVFGGGTKVTVL	–	–	49
E7 (antibody, V domains shown) VH: EVQLVQSGAEVKKPGASVRVSCKTSGYSFTSYDINWVRQTTGQGLEWMGWVNPTSGSTGYAQKFQGRVTMTANTAINTAYMELRDLRSEDTAVYFCVRDVPFDPWGQGTLVTVSS VL: LQSVLTQPASVSGSPGQSITISCTGTSSDVGKYTFVSWYQQHPGKAPKVMVYEVNKRPLGVSPRFSGSKSGNTAYLTISGLQAEDEADYYCSSYTSSSTVVFGGGTKLTVL	34.2	31	–
